Test system: NCCCCN
Assay: purified protein
Settings: PMT activity, co-substrate SAM, 20 mM HEPES pH 8.0, 37°C, 2 mM DTT, 1 mM ascorbic acid

Substance “DsPMT (putrescine N-methyltransferase) (Datura stramonium)” has a Km of 190 ± 27.67 µM.

Substance “DsPMT (putrescine N-methyltransferase) (Datura stramonium; H108L)” has a Km of 3130 ± 732.59 µM.

— publication PMC3725402, “Evolution of the key alkaloid enzyme putrescine N-methyltransferase from spermidine synthase” (Frontiers in Plant Science, 2013)
